{"source": "patent US20250161408A1", "about": "“PEPTIDIC INHIBITORS OF AMYLOID SELF- AND CROSS-ASSEMBLY” (TECHNISCHE UNIVERSITÄT MÜNCHEN, priority 2022, published 2025)", "molecular_target": "T1, fIAPP (Homo sapiens, UniProt P10997)", "T1 construct": "made in house; host or cells: chemical synthesis (Fmoc-SPPS), air-oxidised, RP-HPLC purified", "T1 sequence (P10997 34-70 limits assumed)": "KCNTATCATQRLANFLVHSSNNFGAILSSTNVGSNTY", "assay": "Dot blot binding of Fluos-peptides to fIAPP", "settings": "Fluos-peptides 0.2 μM", "method": "After blocking (5% milk in TBS-T, 2 h, RT) and several washing steps (with TBS-T and ThT buffer), membranes were incubated with N-terminal fluorescein-labeled ACMs (Fluos-ACMs) at 0.2 μM for IAPP-related membranes or 2 μM for Aβ42-related membranes; incubation was overnight (10° C.) in ThT buffer (containing 1% HFIP). To control for fibril autofluorescence, similar membranes were incubated in parallel with buffer only. Bound peptides were visualized using a LAS-400 mini instrument (Fujifilm) equipped with a suitable fluorescence filter.", "note": "Non-standard residues stand in square brackets, D forms with d. NMeF = CN[C@@H](Cc1ccccc1)C(=O)O; NMeV = CN[C@H](C(=O)O)C(C)C; Nle = CCCC[C@H](N)C(=O)O"}
{"substance": "QKL(N-Me)VF(N-Me)FAED - Val-Gly-Ser - NKGAIIGLNleVGGVV (H-QKL[NMeV]F[NMeF]AEDVGSNKGAIIGL[Nle]VGGVV-OH; SMILES CCCC[C@H](NC(=O)[C@H](CC(C)C)NC(=O)CNC(=O)[C@@H](NC(=O)[C@@H](NC(=O)[C@H](C)NC(=O)CNC(=O)[C@H](CCCCN)NC(=O)[C@H](CC(N)=O)NC(=O)[C@H](CO)NC(=O)CNC(=O)[C@@H](NC(=O)[C@H](CC(=O)O)NC(=O)[C@H](CCC(=O)O)NC(=O)[C@H](C)NC(=O)[C@H](Cc1ccccc1)N(C)C(=O)[C@H](Cc1ccccc1)NC(=O)[C@H](C(C)C)N(C)C(=O)[C@H](CC(C)C)NC(=O)[C@H](CCCCN)NC(=O)[C@@H](N)CCC(N)=O)C(C)C)[C@@H](C)CC)[C@@H](C)CC)C(=O)N[C@H](C(=O)NCC(=O)NCC(=O)N[C@H](C(=O)N[C@H](C(=O)O)C(C)C)C(C)C)C(C)C) [VGS-VF]", "values": [{"measurement": "Binding to fIAPP (dot blot)", "value": "bind fIAPP"}]}
